Where “and” joins values, the source holds several entries; their conditions need not be identical. Equal entries are not always repeated.
How the values were obtained:
ANGPTL3 [1] = molecular target: T1, ANGPTL3 (Homo sapiens, UniProt Q9Y5C1); test: Phase 2 open-label study of evinacumab in patients with homozygous familial hypercholesterolemia on concomitant lipid-lowering therapies; type: in vivo; conditions: for LDL-C, Mean of Percent Change from Baseline ± SE (%) / Non-HDL-C, Mean of Percent Change from Baseline ± SE (%) / Apolipoprotein B, Mean of Percent Change from Baseline ± SE (%): 250 mg SC wk 0 + 15 mg/kg IV wk 2
T1 construct: Angiopoietin-like protein 3 (ANGPTL3) is a secreted protein expressed in the liver; from tissue; host or cells: in vivo, human subjects; circulating protein secreted by the liver
T1 sequence (Q9Y5C1 17-460): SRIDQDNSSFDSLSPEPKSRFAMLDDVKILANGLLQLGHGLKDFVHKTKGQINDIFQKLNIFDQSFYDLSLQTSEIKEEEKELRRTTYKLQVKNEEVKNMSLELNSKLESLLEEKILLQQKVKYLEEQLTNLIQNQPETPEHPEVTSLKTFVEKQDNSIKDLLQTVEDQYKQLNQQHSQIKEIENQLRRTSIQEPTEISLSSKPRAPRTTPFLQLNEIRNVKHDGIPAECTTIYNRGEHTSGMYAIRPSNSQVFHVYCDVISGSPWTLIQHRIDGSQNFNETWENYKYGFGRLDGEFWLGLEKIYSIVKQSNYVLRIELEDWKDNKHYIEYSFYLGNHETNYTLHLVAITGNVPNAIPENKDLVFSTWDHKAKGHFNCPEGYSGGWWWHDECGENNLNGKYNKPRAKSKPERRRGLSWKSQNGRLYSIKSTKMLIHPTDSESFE
Method: Patients: The nine patients (5 men, 4 women) were selected based on their genotypes and phenotypes. All presented a history of LDL-C >500 mg per deciliter or >400 mg per deciliter after portacaval shunt, premature atherosclerosis (8 of 9 with prior history of cardiovascular events) and severe xanthomatosis, and were homozygotes or compound heterozygotes for known FH-causing LDLR mutations (Hobbs, et al. 1992 Hum Mutat 1:445-66). Three patients were null homozygotes. All patients were on maximally tolerated lipid-lowering therapy.
Study Treatment: The patients were required to maintain their usual background lipid-lowering therapy and diet and exercise regimens throughout the study. All patients received a single open-label dose of evinacumab 250 mg subcutaneously in the abdominal area during the baseline visit and a single 15 mg per kilogram intravenous dose of evinacumab 2 weeks later. The sterile, lyophilized evinacumab drug product was supplied in a 5-ml single-use glass vial for reconstitution to a concentration of 100 mg per milliliter for subcutaneous doses and 50 mg per milliliter for intravenous doses. Patients were followed for a period of up to 24 weeks after the intravenous dose to allow for washout of evinacumab, and were offered enrollment in an extension study.
Pharmacodynamic Assessment: Fasting blood samples were collected before administration of study drug, at baseline and at regular intervals during the open-label treatment period and safety follow-up period, for measurement of LDL-C, non-HDL-C, total cholesterol, HDL-C, apolipoprotein B, lipoprotein (a), triglycerides, apolipoprotein A-1, and other parameters. The primary endpoint was the mean ±standard deviation (SD) percent change in LDL-C from baseline to week 4.

ANGPTL3 [2] = molecular target: T1, ANGPTL3; test: Phase 1 first-in-human ascending single-dose placebo-controlled study of evinacumab SC or IV in subjects with elevated TGs and/or LDL-C; type: in vivo
Method: Methods: The instant study constituted a phase 1, first-in-human, ascending single-dose, placebo (PBO)-controlled, double-blind study of evinacumab administered subcutaneously (SC) or intravenously (IV) in subjects with elevations of TGs (150≤TG≤450 mg/dL) and/or LDL C (≥100 mg/dL). Eighty-three subjects were randomized into the study (9 in PBO SC; 12 in PBO IV; 11 in 75 mg SC: 12 in 150 mg SC, 9 in 250 mg SC, 10 in 5 mg/kg IV, 9 in 10 mg/kg IV, and 11 in 20 mg/kg IV).

ANGPTL3 [3] = molecular target: T1, ANGPTL3; conditions: Dewey, et al. 2017; cited from earlier work
[4] = 3 homozygous null patients, through week 12
[5] = nine HoFH patients, baseline to week 4, given as a decrease
[6] = nine HoFH patients, between weeks 4 and 12

Substance: evinacumab: human anti-ANGPTL3 monoclonal antibody; HCVR SEQ ID NO:1, LCVR SEQ ID NO:5
- mean±SD peak reduction in LDL-C (ANGPTL3 [1]; [4]): −48±13%
- range of peak reduction in LDL-C (ANGPTL3 [1]; [4]): −60% to −33%
- tolerability (ANGPTL3 [1]; 250-mg subcutaneous injection at baseline and 15 mg per kilogram intravenous infusion at week 2): well tolerated
- absolute reductions in LDL-C achieved (ANGPTL3 [1]; HoFH patients): 150 to 200 mg/dL
- LDL-C, Mean of Percent Change from Baseline ± SE (%) (ANGPTL3 [1]; HoFH patients, Day 4): −12.8 ± 3.7%
- Non-HDL-C, Mean of Percent Change from Baseline ± SE (%) (ANGPTL3 [1]; HoFH patients, Day 4): −13.6 ± 3.6%
- LDL-C, Mean of Percent Change from Baseline ± SE (%) (ANGPTL3 [1]; HoFH patients, Week 1): −24 ± 7.0%
- Non-HDL-C, Mean of Percent Change from Baseline ± SE (%) (ANGPTL3 [1]; HoFH patients, Week 1): −24.1 ± 6.7%
- Apolipoprotein B, Mean of Percent Change from Baseline ± SE (%) (ANGPTL3 [1]; HoFH patients, Week 2): −24.2 ± 7%
- LDL-C, Mean of Percent Change from Baseline ± SE (%) (ANGPTL3 [1]; HoFH patients, Week 2): −30.2 ± 8.1%
- Non-HDL-C, Mean of Percent Change from Baseline ± SE (%) (ANGPTL3 [1]; HoFH patients, Week 2): −29.6 ± 7.8%
- Apolipoprotein B, Mean of Percent Change from Baseline ± SE (%) (ANGPTL3 [1]; HoFH patients, Week 3): −38.6 ± 7.3%
- LDL-C, Mean of Percent Change from Baseline ± SE (%) (ANGPTL3 [1]; HoFH patients, Week 3): −41.4 ± 8.3%
- Non-HDL-C, Mean of Percent Change from Baseline ± SE (%) (ANGPTL3 [1]; HoFH patients, Week 3): −41.6 ± 8%
- Apolipoprotein B, Mean of Percent Change from Baseline ± SE (%) (ANGPTL3 [1]; HoFH patients, Week 4): −45.9 ± 6.1%
- LDL-C, Mean of Percent Change from Baseline ± SE (%) (ANGPTL3 [1]; HoFH patients, Week 4): −49.2 ± 7.7%
- Non-HDL-C, Mean of Percent Change from Baseline ± SE (%) (ANGPTL3 [1]; HoFH patients, Week 4): −48.9 ± 7.4%
- Apolipoprotein B, Mean of Percent Change from Baseline ± SE (%) (ANGPTL3 [1]; HoFH patients, Week 5): −42.3 ± 4.7%
- LDL-C, Mean of Percent Change from Baseline ± SE (%) (ANGPTL3 [1]; HoFH patients, Week 5): −46.8 ± 5.1%
- Non-HDL-C, Mean of Percent Change from Baseline ± SE (%) (ANGPTL3 [1]; HoFH patients, Week 5): −46.6 ± 5.0%
- Apolipoprotein B, Mean of Percent Change from Baseline ± SE (%) (ANGPTL3 [1]; HoFH patients, Week 6): −43.1 ± 4.9%
- LDL-C, Mean of Percent Change from Baseline ± SE (%) (ANGPTL3 [1]; HoFH patients, Week 6): −52.1 ± 4.9%
- Non-HDL-C, Mean of Percent Change from Baseline ± SE (%) (ANGPTL3 [1]; HoFH patients, Week 6): −51.5 ± 4.8%
- Apolipoprotein B, Mean of Percent Change from Baseline ± SE (%) (ANGPTL3 [1]; HoFH patients, Week 8): −42.7 ± 4.8%
- LDL-C, Mean of Percent Change from Baseline ± SE (%) (ANGPTL3 [1]; HoFH patients, Week 8): −51.6 ± 6.0%
- Non-HDL-C, Mean of Percent Change from Baseline ± SE (%) (ANGPTL3 [1]; HoFH patients, Week 8): −50.6 ± 5.7%
- LDL-C, Mean of Percent Change from Baseline ± SE (%) (ANGPTL3 [1]; HoFH patients, Week 10): −45.6 ± 4.6%
- Non-HDL-C, Mean of Percent Change from Baseline ± SE (%) (ANGPTL3 [1]; HoFH patients, Week 10): −44.8 ± 4.4%
- Apolipoprotein B, Mean of Percent Change from Baseline ± SE (%) (ANGPTL3 [1]; HoFH patients, Week 12): −29.5 ± 7.2%
- LDL-C, Mean of Percent Change from Baseline ± SE (%) (ANGPTL3 [1]; HoFH patients, Week 12): −36.6 ± 6.4%
- Non-HDL-C, Mean of Percent Change from Baseline ± SE (%) (ANGPTL3 [1]; HoFH patients, Week 12): −36.4 ± 6.2%
- LDL-C reached, Patient C (ANGPTL3 [1]; Patient C on high-dose statins, ezetimibe and lomitapide, week 4, 2 weeks after evinacumab intravenous administration): 15 mg per deciliter
- reduction in LDL-C, Patient C (ANGPTL3 [1]; Patient C, concomitant lomitapide, 2 weeks after evinacumab intravenous administration): 90%
- reduction in LDL-C, Patient G (ANGPTL3 [1]; Patient G, concomitant lomitapide, 2 weeks after evinacumab intravenous administration): 44%
- reductions in LDL-C from baseline in all patients (ANGPTL3 [1]; all nine patients, including the three homozygous null patients lacking LDLR activity): clinically meaningful reductions in LDL-C from baseline
- normalization of LDL-C concentrations (ANGPTL3 [1]; evinacumab add-on therapy in HoFH participants): normalization of LDL-C concentrations in four HoFH participants
- LDL-C decreased (primary endpoint) (ANGPTL3 [1]; nine HoFH adults on maximally-tolerated conventional therapies, week 4, given as a decrease): 49%
- adverse events considered as related to the study medication (ANGPTL3 [1]; nine HoFH patients): Six events were considered as related to the study medication
- adverse events leading to treatment discontinuation (ANGPTL3 [1]; nine HoFH patients): none led to treatment discontinuation
- occurrence of at least one adverse event (ANGPTL3 [1]; nine HoFH patients): All nine patients reported the occurrence of at least one adverse event
- serious adverse events (ANGPTL3 [1]; nine HoFH patients): One event (coronary artery disease due to underlying disease) was serious but was not considered as related to the study medication
- triglycerides percent change, interquartile range (ANGPTL3 [1]; nine HoFH patients, baseline to week 4): −57% to −38%
- HDL-C decreased by (percent change, mean±SD) (ANGPTL3 [1]; [5]): 36±16%
- apolipoprotein B decreased by (percent change, mean±SD) (ANGPTL3 [1]; [5]): 46±18%
- non-HDL-C decreased by (percent change, mean±SD) (ANGPTL3 [1]; [5]): 49±22%
- triglycerides decreased by (percent change, median) (ANGPTL3 [1]; [5]): 47%
- Overall mean±SD peak reduction in LDL-C (ANGPTL3 [1]; [6]): -58+18% and −58±18%
- absolute peak reduction in LDL-C (ANGPTL3 [1]; [6]): 202 mg/dL
- range of peak reduction in LDL-C (ANGPTL3 [1]; nine HoFH patients, between weeks 4 and 12, range across patients): -90% to-33%
- absolute change from baseline in LDL-C (mean±SD) (ANGPTL3 [1]; nine HoFH patients, week 4): −157±90 mg per deciliter
- mean±SD achieved LDL-C value (ANGPTL3 [1]; nine HoFH patients, week 4): 219±191 mg per deciliter
- mean±SD percent change in LDL-C from baseline to week 4 (pre-specified primary endpoint) (ANGPTL3 [1]; nine HoFH patients, week 4): −49±23%
- range of absolute change from baseline in LDL-C (ANGPTL3 [1]; nine HoFH patients, week 4, range across patients): −323 to −71 mg per deciliter
- reduction in LDL-C achieved by one patient (ANGPTL3 [1]; one patient, week 4 (2 weeks after the intravenous dose)): greater than 80%
- reduction in LDL-C, patient D (ANGPTL3 [1]; patient D, no lomitapide, week 4): −77%
- TG, median % change from baseline (maximum TG reductions) (ANGPTL3 [2]; Day 4, across the evinacumab doses (75-250 mg SC, 5-20 mg/kg IV)): −1.0% to −75.0%
- LDL-C, mean % changes from baseline (ANGPTL3 [2]; Day 11, across the evinacumab doses (75-250 mg SC, 5-20 mg/kg IV)): −3.4% to −25.5%
- duration of LDL reduction (ANGPTL3 [2]; after 20 mg/kg IV): 43 days
- duration of TG reduction (ANGPTL3 [2]; after 20 mg/kg IV): 64 days
- headache (TEAE), number of subjects (ANGPTL3 [2]; evinacumab group): 7
- headache (TEAE), percent of subjects (ANGPTL3 [2]; evinacumab group): 11.3%
- subjects reporting at least one treatment emergent adverse event (TEAE), number (ANGPTL3 [2]; evinacumab group): 32 subjects
- subjects reporting at least one treatment emergent adverse event (TEAE), percent (ANGPTL3 [2]; evinacumab group): 51.6%
- increases in ALT/AST [>2X ULN], number of subjects (ANGPTL3 [2]; evinacumab-treated): 5 treated subjects
- effect on TGs, LDL-C and HDL-C (ANGPTL3 [2]; healthy subjects with moderately elevated TGs and/or LDL-C): rapid and substantial reductions in TGs, as well as reductions in LDL-C and HDL-C
- discontinuation due to a TEAE (ANGPTL3 [2]; human, in vivo): no subject discontinued due to a TEAE
- dose-related safety trend (ANGPTL3 [2]; human, in vivo): no dose-related safety trend
- effect on HDL-C, VLDL-C, total cholesterol, non-HDL-C, ApoA1, and ApoB (ANGPTL3 [2]; human, in vivo): Dose-dependent reductions
- effect on Lp(a) (ANGPTL3 [2]; human, in vivo): no apparent effects
- serious TEAEs (ANGPTL3 [2]; human, in vivo): None were serious
- effect on major lipid fractions (ANGPTL3 [2]; normal healthy volunteers): reduced the three major lipid fractions
- tolerability (ANGPTL3 [2]; single SC or IV dose, subjects with moderately elevated TGs and/or LDL-C): generally well-tolerated
- tolerability and LDL-C effect in first-in-human study of healthy human volunteers (ANGPTL3 [3]): shown to reduce LDL-C and was also well tolerated

— patent US20250332254A1, “METHODS FOR TREATING PATIENTS WITH FAMILIAL HYPERCHOLESTEROLEMIA” (REGENERON PHARMACEUTICALS, INC., priority 2016, published 2025)
